Source: patent US20080220446A1, “Method for Detecting and/or Removing Protein and/or Peptide Comprising a Cross-Beta Structure From an Aqueous Solution Comprising a Protein” (priority 2005, published 2008)

Biological target: T1, Fn F4-5 (Homo sapiens, UniProt P02751)
T1 construct: amino-acids NH2—I182-V276-COOH of Fn F4-5; made in house; host or cells: Saccharomyces cerevisiae
Assay: Biacore surface plasmon resonance, binding to immobilized Fn F4-5
Experimental: Binding of cross-β structure containing peptides/proteins was studied using surface plasmon resonance technology with a Biacore 2000 apparatus (Biacore AB, Uppsala, Sweden). A standardized amine coupling procedure was used to couple proteins with F domains to a CM5 chip (Biacore AB, Uppsala, Sweden). First, the dextran surface of the chips was activated by a 35 μl injection with a 1:1 mixture of 0.1 M N-hydroxysuccinimide (NHS) and 0.4 M N-ethyl-N′-(dimethylaminopropyl)carbodiimide (EDC) at a flow rate of 5 μl min.^−1. Then, the proteins were covalently coupled to the activated dextran surface. Remaining activated groups in each of the four flow channels were blocked by injection of 35 μl of 1 M ethanolamine hydrochloride pH 8.5. EDC, NHS and ethanolamine hydrochloride were obtained from Biacore. On one chip, on channels 1 to 4, buffer (reference channel), the soluble extracellular part of receptor for advanced glycation endproducts (sRAGE), tPA and K2P-tPA were immobilized. […] Binding of albumin-AGE was determined with a solution of 3.9 μg ml^−1 albumin-AGE in running buffer. albumin-AGE was filtered on a Millex-GV 0.22 μm filter unit (Millipore). […] Binding of Hb-AGE was also tested after centrifugation for 10 min. at 16,000*g alternative to filtration. tPA activation before and after filtration was assessed with a Plg-activation assay. […]

T1 sequence (P02751 182-276): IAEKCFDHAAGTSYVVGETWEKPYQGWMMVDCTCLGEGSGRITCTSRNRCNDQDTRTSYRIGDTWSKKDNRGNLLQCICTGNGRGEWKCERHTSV

binding to the Fn F4-5 doublet (Biacore, native Hb at 25 nM): bound
Kd (immobilized Fn F4-5, Biacore CM5 chip, read-out: concentration of ligand that results in half maximum binding to Fn F4-5): 165 nM
B1: recombinant β2GPI: recombinant human β2-glycoprotein I made using insect cells (protein)
chain: GRTCPKPDDLPFSTVVPLKTFYEPGEEITYSCKPGYVSRGGMRKFICPLTGLWPINTLKCTPRVCPFAGILENGAVRYTTFEYPNTISFSCNTGFYLNGADSAKCTEEGKWSPELPVCAPIICPPPSIPTFATLRVYKPSAGNNSLYRDTAVFECLPQHAMFGNDTITCTTHGNWTKLPECREVKCPFPSRPDNGFVNYPAKPTLYYKDKATFGCHDGYSLDGPEEIECTKLGNWSAMPSCKASCKVPVKKATVVYQGERVKIQEKFKNGMLHGDKVSFFCKNKEKKCSYTEDAQCIDGTIEVPKCFKEHSSLAFWKTDASDVKPC
